Experimental findings from publication PMC5532264 are described below.

Series [1] is described as follows: cell surface expression by flow cytometry, CHO. The following applies: glycan lost; control: DC-SIGN-WT.
A short description of series [2]: linear fit to averaged AFM retraction FD-curves. Particulars: glycan lost; control: untreated CHO-DC-SIGN-WT.
Series [3] can be described thus: AFM, tether rupture events per retraction. Particulars: glycan lost; control: DC-SIGN-WT.

B1: DC-SIGN (CD209): N80A (protein)
parent chain: MSDSKEPRLQQLGLLEEEQLRGLGFRQTRGYKSLAGCLGHGPLVLQLLSFTLLAGLLVQVSKVPSSISQEQSRQDAIYQNLTQLKAAVGELSEKSKLQEIYQELTQLKAAVGELPEKSKLQEIYQELTRLKAAVGELPEKSKLQEIYQELTWLKAAVGELPEKSKMQEIYQELTRLKAAVGELPEKSKQQEIYQELTRLKAAVGELPEKSKQQEIYQELTRLKAAVGELPEKSKQQEIYQELTQLKAAVERLCHPCPWEWTFFQGNCYFMSNSQRNWHDSITACKEVGAQLVVIKSAEEQNFLQLQSSRSNRFTWMGLSDLNQEGTWQWVDGSPLLPSFKQYWNRGEPNNVGEEDCAEFSGNGWNDDKCNLAKFWICKKSAASCSRDEEQFLSPAPATPNPPPA
On to B1, for which the expression_or_secretion result in series [1] is “no change”. For the same protein, the “other: adhesion-site elasticity (cell stiffening), fold_change” value in series [2] is listed as “decreases”. Further, the “other: membrane tether formation” value in series [3] is reported as “no change”.
